Assay results published in patent US20230212554A1 (published 2023).
Changes are numbered by the printed parent chain.

B1: NP8 (antibody, V domains shown)
VH: EVQLVESGGGLVQPGGSLRLSCAASGFTINSFGIHWVRQAPGKGLEWVAGIGPFGGSTFYADSVKGRFTISADTSKNTAYLQMNSLRAEDTAVYYCARGFYWFDYWGQGTLVTVSS
VL: DIQMTQSPSSLSASVGDRVTITCRASQDVDDSVAWYQQKPGKAPKLLIYWTRYLYSGVPSRFSGSGSGTDFTLTISSLQPEDFATYYCQQGYNYPLTFGQGTKVEIKR
B2: NP9 (antibody, V domains shown)
VH: EVQLVESGGGLVQPGGSLRLSCAASGFTINNGWIHWVRQAPGKGLEWVAGIGPYWGFTSYADSVKGRFMISADTSKNTAYLQMNSLRAEDTAVYYCARFDSDHDHHYSYYYYYDNGYMDYWGQGTLVTVSS
VL: B1 VL with D30W, D31F, W50G, R52T, Y53S, G91Y, Y92F
B3: NP14 (antibody, V domains shown)
VH: EVQLVESGGGLVQPGGSLRLSCAASGFTIDNGGIHWVRQAPGKGLEWVASIWPSWGSTSYADSVKGRFTISADTSKNTAYLQMNSLRAEDTAVYYCARFNFGVFGVMDYWGQGTLVTVSS
VL: B1 VL with D31N, S32D, W50G, T51P, Y53G, G91Y, Y92S, N93S, Y94W
B4: NP13 (antibody, V domains shown)
VH: EVQLVESGGGLVQPGGSLRLSCAASGFTINNYGIHWVRQAPGKGLEWVASIGPYGGSTYYADSVKGRFTISADTSKNTAYLQMNSLRAEDTAVYYCARFGYFNWLDMDYWGQGTLVTVSS
VL: DIQMTQSPSSLSASVGDRVTITCRASQDVGYWVAWYQQKPGKAPKLLISSASGLYSGVPSRFSGSGSGTDFTLTISSLQPEDFATYYCQQGWDWPITFGQGTKVEIKR
B5: NP4 (antibody, V domains shown)
VH: EVQLVESGGGLVQPGGSLRLSCAASGFTISNSSIHWVRQAPGKGLEWVAGIGPSGGYTFYADSVKGRFTISADTSKNTAYLQMNSLRAEDTAVYYCARFHSHNSYYSYSHYGYMDYWGQGTLVTVSS
VL: B4 VL with Y31W, W32G, S50G, A51P, G53S, G91Y, W92F, D93N, W94Y

Biological target: NPA3 (influenza A virus A/Aalborg/INS132/2009 …, UniProt P68042 1-489)
Assay: ELISA on recombinant NP

Point of comparison: B2, EC50 4.38 nM. Against it:
- B1 — 63-fold lower, 0.07 nM
- B3 — 4.5-fold higher, 19.7 nM
- B4 — 2.1-fold higher, 9.36 nM
- B5 — 2.3-fold higher, 10.1 nM
